± gives the uncertainty stated by the source.
B1: Zinc finger homeobox protein 4, residues 2183 to 2238; numbered along this chain, Q86UP3 (parent)
chain: SSRTRFTDYQLRVLQDFFDTNAYPKDDEIEQLSTVLNLPTRVIVVWFQNARQKARK

Variants of: B1
Assay: abundance fitness (aPCA) (normalised: wild type 0, dead -1); higher = more abundant; growth selection in yeast, the domain comes from the species named
Conditions: Homo sapiens

Abundance fitness of substitutions, site by site:
T20: G -0.041 ± 0.079, F -0.503 ± 0.14, D -0.205 ± 0.13, E -0.22 ± 0.12, Q -0.196 ± 0.13, I -0.308 ± 0.14, N -0.058 ± 0.16, C 0.002 ± 0.12, K 0.133 ± 0.12, A 0.108 ± 0.089, R 0.072 ± 0.078, L -0.205 ± 0.083, W -0.158 ± 0.1, P -0.57 ± 0.15, M -0.101 ± 0.13, S -0.047 ± 0.088, V -0.199 ± 0.092, H -0.179 ± 0.18
L32: D -0.531 ± 0.17, C -0.548 ± 0.12, E -0.723 ± 0.12, A -0.659 ± 0.097
D16: V -0.25 ± 0.086, A -0.065 ± 0.12, K -0.108 ± 0.15, W -0.838 ± 0.14, C -0.32 ± 0.16, T -0.29 ± 0.13, I -0.644 ± 0.21, F -0.806 ± 0.25, M -0.323 ± 0.12, L -0.602 ± 0.098, P -0.357 ± 0.14, N -0.034 ± 0.14, E 0.014 ± 0.11, R -0.083 ± 0.088, G 0.093 ± 0.084, H -0.193 ± 0.17, S 0.042 ± 0.097, Y -0.458 ± 0.22, Q 0.027 ± 0.12
F17: L -0.12 ± 0.09, K -0.094 ± 0.1, Y -0.196 ± 0.17, D -0.591 ± 0.19, H 0.079 ± 0.14, S -0.097 ± 0.1, T -0.086 ± 0.11, I -0.135 ± 0.18, A -0.006 ± 0.097, G -0.243 ± 0.082, M -0.004 ± 0.12, R 0.02 ± 0.078, N 0.049 ± 0.15, V -0.25 ± 0.09, E -0.252 ± 0.12, Q 0.051 ± 0.11, P -1 ± 0.18
P24: H -0.703 ± 0.21, N -0.945 ± 0.23, W -0.593 ± 0.12, V -0.501 ± 0.092, F -0.792 ± 0.17, E -0.823 ± 0.14, K -0.817 ± 0.25, M -0.596 ± 0.17, D -0.832 ± 0.18, Y -0.746 ± 0.19, I -0.292 ± 0.18, G -0.813 ± 0.087, L -0.419 ± 0.099, R -0.657 ± 0.092, T -0.698 ± 0.14, C -0.567 ± 0.13, A -0.272 ± 0.099, Q -0.703 ± 0.18
E28: A -0.036 ± 0.094, K -0.011 ± 0.16, N -0.287 ± 0.14, H -0.188 ± 0.16, C -0.18 ± 0.11, Y -0.341 ± 0.14, Q 0.061 ± 0.15, V -0.34 ± 0.082, S -0.18 ± 0.094, T -0.069 ± 0.13, D 0.031 ± 0.14, R -0.25 ± 0.075, M -0.507 ± 0.17, F -0.448 ± 0.15, I -0.741 ± 0.23, G -0.207 ± 0.076, W -0.596 ± 0.11
D19: R -0.147 ± 0.079, N -0.087 ± 0.14, E -0.235 ± 0.11, S -0.131 ± 0.093, C -0.236 ± 0.14, L -0.028 ± 0.098, G -0.032 ± 0.075, P -0.43 ± 0.17, W -0.292 ± 0.12, M -0.061 ± 0.12, Y -0.171 ± 0.18, H -0.173 ± 0.15, I -0.234 ± 0.17, Q -0.071 ± 0.14, K -0.074 ± 0.13, F -0.146 ± 0.19, A 0.108 ± 0.081, T 0.164 ± 0.12
N21: K -0.201 ± 0.11, V -0.279 ± 0.089, H -0.219 ± 0.15, L -0.488 ± 0.099, P -0.718 ± 0.17, E -0.197 ± 0.1, T -0.027 ± 0.13, D -0.128 ± 0.13, A -0.176 ± 0.087, S -0.2 ± 0.099, G -0.387 ± 0.077, F -0.451 ± 0.17, M -0.414 ± 0.13, I -0.187 ± 0.18, C 0.346 ± 0.16, Y -0.565 ± 0.2, R -0.181 ± 0.08, W -0.556 ± 0.13, Q -0.497 ± 0.13
D26: T -0.071 ± 0.16, A 0.003 ± 0.1, N -0.114 ± 0.15, E -0.163 ± 0.12, M -0.056 ± 0.15, P -0.193 ± 0.14, S -0.049 ± 0.09, I -0.427 ± 0.22, C -0.255 ± 0.2, K 0.067 ± 0.13, H -0.021 ± 0.19, G 0.005 ± 0.085, Q -0.031 ± 0.13, F -0.087 ± 0.17, Y -0.234 ± 0.22, W -0.047 ± 0.1, R -0.05 ± 0.083, L -0.257 ± 0.11, V -0.048 ± 0.086
R12: Y -0.702 ± 0.18, T -0.066 ± 0.12, V -0.544 ± 0.1, S -0.203 ± 0.089, Q -0.014 ± 0.15
K25: Y -0.76 ± 0.18, N -0.156 ± 0.15, P -0.244 ± 0.1, E -0.455 ± 0.12, A -0.203 ± 0.096, W -0.387 ± 0.13, L -0.233 ± 0.091, V -0.068 ± 0.082, M -0.323 ± 0.13, R -0.047 ± 0.081, S -0.025 ± 0.09, G -0.072 ± 0.082, D -0.177 ± 0.13

Source: the Human Domainome abundance scans (Beltran et al. 2025)
